Measured values as given in paper PMC10157491.

Molecular target: T1, His6-NhaR (Escherichia coli MG1655?) (UniProt P0A9G2)
T1 sequence: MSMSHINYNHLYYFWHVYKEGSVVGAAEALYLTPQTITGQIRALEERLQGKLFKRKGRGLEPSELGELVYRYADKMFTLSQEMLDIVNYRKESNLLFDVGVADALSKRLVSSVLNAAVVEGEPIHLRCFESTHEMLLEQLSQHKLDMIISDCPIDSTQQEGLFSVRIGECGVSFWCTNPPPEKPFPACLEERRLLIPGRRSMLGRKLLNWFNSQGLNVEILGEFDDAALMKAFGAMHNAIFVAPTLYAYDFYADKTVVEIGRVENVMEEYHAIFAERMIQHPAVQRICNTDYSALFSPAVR
Experiment: EMSA
Details: NhaR EMSA: 20 mM Tris-HCl pH 8.0, 100 mM NaCl, 1 mM DTT, 10% glycerol, 125 ug/mL BSA, 10 ng DNA in 10 uL, 25 C 20 min; Fis: 10 mM Tris-HCl pH 8.0, 150 mM NaCl …

Sequence | binding
CCGTCAAAAACGCATCTCACCGCTGATGGCGCAAATTCTTCAATAGCTCGTAAAAAACGAATTATTCCTACACTATAATCTGATTTTAACGATGATTCGTGCGGGGTAAAATAGTAAAAACGATCTATTCACCTGAAAGAGAAATAAAAAGTGAAACATCTGCATCGATTCTTTAGCAGTGATGCCTCGGGA (double strand) [PnhaA] | binds
CAATTAAATCCGTGAGTGCCGTAGCGCAGCCTTTCATCAGGACTTTCGAAAAATCCGAAATCATGCATCGGAATTTACTGATTTAATTATTTTAATCCTAATTTATTTTGAAAAAGGCATTGGGATTTATGCCGTATTCCTGAAGA (double strand) [PpgaA] | binds
CCCGGTAATCTATTGTGGGAATTTAATTTAAGTGCAGAAGTAATATTTTCGCCGGATTTTATTCGGAATATCCTGCTTATCCTCGTGCTGTTTCTCACGTAGTCTATAATTTCCTTTTTAAGCCCACAGGAGAGCAAC (double strand) [PosmC] | binds
